In publication PMC4534193, “Binding of the Lactococcal Drug Dependent Transcriptional Regulator LmrR to Its Ligands and Responsive Promoter Regions” (PLoS ONE, 2015) one finds Kd and binding data, which are given here for six substances.

Series [1] concerns LmrR-Strep (Lactococcus lactis). The experiment in a line: MST. To be noted: apparent Kd, MST: 20 mM Tris-HCl pH 8.0, 1 mM EDTA, 50 nM Cy5-DNA, 30 min incubation at 30 C, 30% LED, 40% laser power (30% laser for PlmrR), Hill fit.
Series [2] concerns the target T1, LmrR-Strep (Lactococcus lactis) (UniProt A2RI36).
T1 sequence: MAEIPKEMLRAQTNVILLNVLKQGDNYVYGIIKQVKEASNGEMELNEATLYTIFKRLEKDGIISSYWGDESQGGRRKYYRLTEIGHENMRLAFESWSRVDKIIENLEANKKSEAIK
In words: MST. To be noted: MST: 20 mM Tris-HCl pH 8.0, 1 mM EDTA, 50 nM Cy5-DNA, 30 min incubation at 30 C; 30% LED, 40% laser power (30% laser for PlmrR); Hill fit.

For the substance PlmrCD (lmrCD promoter/operator region), the Kd in series [1] (50 uM riboflavin) is 195 nM; in series [1] (no riboflavin, Hill coefficient 1.78 +/- 0.17), 82.1 nM.

As for “ACTACTTTACATTAAATTGAATTTTCAATTTCATTTTACTTCAAAATAATTTCAATAAATTTTTTGAGAAGATAATTATAACATTATTTTTTTTAGTAAACAAGCATTAATTGTTAATGCTGTTAAAGATTACAATAGTTAGTTTCATAAATGGTAAACTAACAAAAATATTGTAACGCTTTTTAAAGTTTAAGTCAACGATTTACGACGTTATTTGTATCTTCTTATGTTTTTATAAATTTAGAATTTAAAGTAAGGAATGAATCG (double strand) [PlmrCD no PadR (half of PadR motif deleted)]”, in series [2], the binding result is given as “no binding”.

Consider “CTCCTTGTTTTAGGACATTGAGCAAAATTACATTGGTTTGGGCTCGTAACATTTCTTTTGGTATTTCTGCCATTCTTTTTCCTTTCTATCATTTTAAACAAAGTATATTATACTTCACATTACTATGTAAGTCAAGGTACTTAAACTATTTATATAATATTTTATTTTTGACGACTTTCTACTATATAAGATAAGAAAAAATCATCTCCG (double strand) [PlmrR (lmrR promoter/operator region)]”, for which the Kd in series [2] was found to be 1400 nM.

As to PlmrCD -62bp, the Kd in series [1] (no riboflavin) amounted to 62 nM.

As for “TTCTAGAGTTAAATAATGTAAACTACTTTACATTAAATTGAATTTTCAATTTCATTTTACTTCAAAATAATTTCAATAAATTTTTTGAGAAGATAATTATAACATTATTTTTTTTAGTAAACAAGCATTAATTGTTAATGCTGTTAAAGATTACAATAGTTAGTTTCATAAATGGTAAACTAACAAAAATATTGTAACGCTTTTTAAAGTTTAAGTCAACGATTTACGACGTTATTTGTATCTTCTTATGTTTTTATAAATTTAGAATTTAAAGTAAGGAATGAATCG (double strand) [PlmrCD -62bp]”, the Kd in series [2] turned out to be 62 nM.

PlmrR (lmrR promoter/operator region): the Kd in series [1] (50 uM riboflavin, 30% laser power) stood at 5120 nM; in series [1] (no riboflavin, Hill coefficient 2.43 +/- 0.19, 30% laser power), 1400 nM.
